Data taken from patent publication US20180244758A1 (MAPP BIOPHARMACEUTICAL, published 2018).
Residue numbers refer to the chain shown, from its start.

T1: sGP (UniProt P60170 33-324)
T1 sequence: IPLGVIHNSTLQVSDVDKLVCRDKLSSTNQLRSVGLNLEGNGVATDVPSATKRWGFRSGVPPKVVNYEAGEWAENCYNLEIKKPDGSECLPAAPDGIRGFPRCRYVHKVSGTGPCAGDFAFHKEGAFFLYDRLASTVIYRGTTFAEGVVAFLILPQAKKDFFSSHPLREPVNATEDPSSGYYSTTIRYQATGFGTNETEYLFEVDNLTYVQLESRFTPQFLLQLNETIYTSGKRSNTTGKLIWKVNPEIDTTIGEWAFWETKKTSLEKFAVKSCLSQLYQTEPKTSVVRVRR

T2: MARV GP (Marburg virus (MARV), UniProt P35253 19-637)
T2 sequence: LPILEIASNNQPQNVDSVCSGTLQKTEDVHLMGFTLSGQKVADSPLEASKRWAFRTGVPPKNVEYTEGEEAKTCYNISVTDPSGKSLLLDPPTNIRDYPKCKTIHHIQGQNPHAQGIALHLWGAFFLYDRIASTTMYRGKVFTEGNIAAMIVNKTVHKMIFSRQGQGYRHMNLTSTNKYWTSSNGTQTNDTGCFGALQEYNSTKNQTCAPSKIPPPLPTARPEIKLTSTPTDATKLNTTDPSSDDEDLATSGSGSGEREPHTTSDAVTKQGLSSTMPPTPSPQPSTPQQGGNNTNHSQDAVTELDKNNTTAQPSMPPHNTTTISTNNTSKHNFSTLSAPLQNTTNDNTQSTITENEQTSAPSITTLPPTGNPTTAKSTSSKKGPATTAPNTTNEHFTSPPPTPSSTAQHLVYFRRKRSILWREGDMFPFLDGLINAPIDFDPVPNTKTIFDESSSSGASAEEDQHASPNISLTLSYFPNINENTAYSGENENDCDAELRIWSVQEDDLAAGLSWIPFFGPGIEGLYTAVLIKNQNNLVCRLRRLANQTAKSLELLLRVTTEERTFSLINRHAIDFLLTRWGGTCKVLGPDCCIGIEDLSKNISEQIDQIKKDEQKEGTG

T3: EBOV GPCL on cleaved VSV-GP particles (Ebola virus (EBOV), UniProt Q05320 33-676)
T3 sequence: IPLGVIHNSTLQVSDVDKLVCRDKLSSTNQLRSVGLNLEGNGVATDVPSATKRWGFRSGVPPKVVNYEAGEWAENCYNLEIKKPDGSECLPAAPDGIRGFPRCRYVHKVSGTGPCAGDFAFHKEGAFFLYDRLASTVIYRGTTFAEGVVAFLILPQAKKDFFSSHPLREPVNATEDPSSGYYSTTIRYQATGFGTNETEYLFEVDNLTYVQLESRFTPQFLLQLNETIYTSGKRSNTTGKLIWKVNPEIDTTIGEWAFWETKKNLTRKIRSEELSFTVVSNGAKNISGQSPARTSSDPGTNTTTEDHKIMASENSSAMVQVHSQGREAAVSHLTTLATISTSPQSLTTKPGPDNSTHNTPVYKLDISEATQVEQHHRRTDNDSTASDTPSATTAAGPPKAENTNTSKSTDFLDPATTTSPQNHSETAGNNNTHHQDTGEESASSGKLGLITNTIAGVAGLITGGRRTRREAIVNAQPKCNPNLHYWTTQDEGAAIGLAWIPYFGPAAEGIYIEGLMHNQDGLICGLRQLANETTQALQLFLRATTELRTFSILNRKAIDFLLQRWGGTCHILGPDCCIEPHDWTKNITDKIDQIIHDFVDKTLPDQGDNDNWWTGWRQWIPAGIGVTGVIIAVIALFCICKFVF

T4: GP of authentic (wild-type) SUDV (Sudan virus (SUDV), UniProt Q66814 33-676)
T4 sequence: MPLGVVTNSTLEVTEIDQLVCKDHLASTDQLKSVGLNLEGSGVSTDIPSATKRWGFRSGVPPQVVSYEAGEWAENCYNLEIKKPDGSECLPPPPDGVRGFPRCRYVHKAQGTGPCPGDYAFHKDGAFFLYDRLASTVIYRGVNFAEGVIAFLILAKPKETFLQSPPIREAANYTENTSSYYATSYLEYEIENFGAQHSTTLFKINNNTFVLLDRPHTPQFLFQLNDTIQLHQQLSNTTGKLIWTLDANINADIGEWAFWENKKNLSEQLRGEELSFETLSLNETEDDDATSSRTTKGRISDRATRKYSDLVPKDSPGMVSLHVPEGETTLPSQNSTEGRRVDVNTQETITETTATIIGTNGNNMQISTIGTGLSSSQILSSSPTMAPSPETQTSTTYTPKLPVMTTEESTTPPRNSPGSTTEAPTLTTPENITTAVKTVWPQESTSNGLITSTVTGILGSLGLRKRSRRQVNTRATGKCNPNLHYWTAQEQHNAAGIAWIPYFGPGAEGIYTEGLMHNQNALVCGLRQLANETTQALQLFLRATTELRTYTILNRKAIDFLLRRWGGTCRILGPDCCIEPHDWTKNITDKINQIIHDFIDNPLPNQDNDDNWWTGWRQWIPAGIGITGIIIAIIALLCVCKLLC

T5: GP of authentic (wild-type) EBOV (Ebola virus (EBOV), UniProt P87666 33-676)
T5 sequence: T3 sequence with V278A, G282R, S345P, L346P, S390P, P398L, S408G, F411L, T467A, I512T

B1: mAb PE-87 (antibody, V domains shown)
VH: QVQLVQSGVTLVQPGGSLRVSCAASGFTFSSYAMSWVRQAPGKGLEWVSAISGLGGSTYYADSVKGRFTISRDNSKNTLYLQMNSLRAEDTAVYYCAKDHRVWAAGYHFDYWGQGALVTVSS
VL: DIVLTQSPSTLSASVGDRVTITCRASQSISSWLAWYQQKPGEAPKLLISDASSLESGVPSRFSGSGSGTEFTLTISSLQPDDFATYYCQQYYSSPTFGGGTKVEIK
B2: mAb PE-16 (antibody, V domains shown)
VH: QVQLVQSGAEVTKPGASVKVSCKASGYTFTTYYMHWVRQAPGQGLEWVGIINPSGGITRYAQKFQGRVTLTRDTSTTTVYMELSSLRSEDTAVYYCARDRYPVLFATDYGMDVWGQGTTVTVSS
VL: DIVMTQSPATLSLSPGERATLSCRASQSVSGYLAWYQQKPGQAPRLLIYDASNRATGIPARFSGSGSGTDFTLTISSLEPEDFAVYYCQQRSIWPPGVTFGGGTKVEIK
B3: mAb PE-47 (antibody, V domains shown)
VH: EVQLVESGGGLVKPGGSLRLSCAASGFTFSNAWMSWVRQAPGEGLEWVGRIKSKTDGGTIDYAAPVKGRFTISRDDSKNTVYLQMTSLKTEDTAVYYCTTYTEDMQYFDWLLRGGETFDYWGQGTLVTVSS
VL: DIQMTQSPSSLSASVGDRVTITCRASQYISTYLNWYQQKPGKAPKLLIYAAYNLQSGVPSRFSGSGSGTDFTLTISSLQPEDFATYYCQQSYSTPGRYTFGQGTKVEIK
B4: mAb PE-24 (antibody, V domains shown)
VH: EVQLVESGGGLVQPGGSLRLSCAASGFTFSSYAMSWVRQAPGKGLEWVSEISGLGGSTYYADSAKGRFTISRDNSKSTLYLQMNSLRAEDTAVYYCAKDHRVWAPGYYFDHWGQGTLVTVSS
VL: B1 VL with E42K, S49Y, Y87F, Y92N, S93R
B5: mAb PE-05 (antibody, V domains shown)
VH: QVQLQESGGGLVKPGRSLRLSCTASGFTFGDYAMSWFRQAPGKGLEWVGFLRSKAYGGTAEYAASVKGRFTMSRDDSKSIAYLQMNSLKTEDTAVYFCTRDGFRGSSWGYSYYGMDVWGQGTTVTVSS
VL: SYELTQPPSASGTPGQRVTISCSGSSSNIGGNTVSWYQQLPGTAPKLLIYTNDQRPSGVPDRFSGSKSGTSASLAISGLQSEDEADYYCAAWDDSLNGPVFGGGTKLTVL

These binders were tested against T1, sGP (assay: ELISA, GP antigen coated).
B1: no binding (tested: 0.2 µg/ml).
B2: no binding (tested: 0.2 µg/ml).
B3: no binding (tested: 0.2 µg/ml).
B4: no binding (tested: 0.2 µg/ml).

What follows are binders tested against T2, MARV GP (assay: ELISA, GP antigen coated).
B5: no binding (tested: 0.2 µg/ml).
B1: no binding (tested: 0.2 µg/ml).
B2: no binding (tested: 0.2 µg/ml).
B3: no binding (tested: 0.2 µg/ml).
B4: no binding (tested: 0.2 µg/ml).

The binders below were run against T3, EBOV GPCL on cleaved VSV-GP particles (assay: cell-based or functional assay).
In the case of B1, the “Neutralization (VSV-GP IC50, nM)” value is reported as 0.2 nM.
With B2 the “Neutralization (VSV-GP IC50, nM)” value was 5.7 nM.
For B3, the “Neutralization (VSV-GP IC50, nM)” value was 0.08 nM.
For B4, the “Neutralization (VSV-GP IC50, nM)” value was 0.6 nM.

Each binder was assayed against T4, GP of authentic (wild-type) SUDV (assay: cell-based or functional assay).
In the case of B1, the “Microneut. WT IC50” value is reported as 0.3 nM.
In the case of B3, the “Microneut. WT IC50” value is reported as < 0.1 nM.
With B4 the “Microneut. WT IC50” value was 0.4 nM.

What follows are binders tested against T5, GP of authentic (wild-type) EBOV (assay: cell-based or functional assay).
B5 was tested, and the “Microneut. WT IC50” value was 7.7 nM and the “Neut. WT EBOV PRNT50” value was 4 nM.
With B1 the “Microneut. WT IC50” value was 0.3 nM and the “Neut. WT EBOV PRNT50” value was < 0.05 nM.
For B2, the “Microneut. WT IC50” value was 0.05 nM and the “Neut. WT EBOV PRNT50” value was < 0.02 nM.
For B3, the “Microneut. WT IC50” value was 0.7 nM.
For B4, the “Microneut. WT IC50” value was 1 nM and the “Neut. WT EBOV PRNT50” value was 0.4 nM.
